# Patent publication US20210386829A1, “COMPOSITIONS AND METHODS FOR MODULATING CGRP SIGNALING TO REGULATE INNATE LYMPHOID CELL INFLAMMATORY RESPONSES” (The Broad Institute, Inc., priority 2018, published 2021)
# B1: IL25 (protein, UniProt Q8VHH8 17-169, looked up)
# Interleukin-25: VSLRIQEGCSHLPSCCPSKEQEPPEEWLKWSSASVSPPEPLSHTHHAESCRASKDGPLNSRAISPWSYELDRDLNRVPQDLYHARCLCPHCVSLQTGSHMDPLGNSVPLYHNQTVFYRRPCHGEEGTHRRYCLERRLYRVSLACVCVRPRVMA
# System: lung-resident ILCs
# Assay: SMART-Seq2 plate-based scRNA-seq of lung-resident ILCs from PBS-, IL-25- or IL-33-treated mice, differential gene expression by logistic regression (Tables 3, 4)
# Assay type: in vivo, mouse
# Source text: Mice and in vivo ILC activation. C57B1/6J mice were purchased from the Jackson Laboratory. Nmur1-LacZ reporter mice with a LacZ cassette knocked into the Nmur1 locus were rederived from Nmur1^tm1.1(KOMP)Vlcg sperm obtained from the trans-NIH Knock-Out Mouse Project (KOMP) Repository. NMU-deficient mice (NMU-KO) were rederived from B6.129S2-Nmu<tm1Mko> embryos from the RIKEN BioResource Center. For experiments with Nmur1-LacZ (Nmur1-KO) and NMU-KO mice, littermates that were either homozygous or heterozygous for the wild type allele were used as controls. Mice were housed under specific-pathogen-free conditions. For experiments, mice were matched for sex and age, and most mice were 6-10 weeks old. Where indicated, mice were anesthetized with Isoflurane and treated intranasally with the indicated stimuli (500 ng IL-25, 500 ng IL-33, or 20 μg Neuromedin U) daily for three consecutive days. The total administered volume was 20 μl for all conditions. Mice were randomly assigned to treatment groups after matching for sex and age. […] Mice were treated intranasally with 10 μg HDM on day 0, 7, 8, and 9, prior to sacrifice on day 10. All experiments were conducted in accordance with animal protocols approved by the Harvard Medical Area Standing Committee on Animals or BWH IACUC.
# Fluorescence-activated cell sorting of innate lymphoid cells. After dissociation, single cell suspensions were incubated with CD90.2 MicroBeads (Miltenyi Biotec) on ice and enriched for CD90.2^+ cells by magnetic separation using LS columns according to the manufacturer's protocol. CD90.2^+ lung cells were then stained on ice with antibodies for sorting. ILCs were defined as 7AAD^− CD45^+ CD90.2^+ CD127^+ Lineage (CD11b, CD11c, CD19, NK1.1, […], CD4, CD8a, TCRβ, TCRγδ)^− cells and sorted on a BD FACS Aria (BD Biosciences).
# For full-length scRNA-Seq, single ILCs were sorted into 96-well plates containing 5 ul TCL Buffer (QIAGEN) with 1% 2-Mercaptoethanol, centrifuged and frozen at −80° C. SMART-Seq2 protocol was carried out as previously described^23 with minor modifications in the reverse transcription step. cDNA was amplified with 22 cycles and fragmented with one-eighth of the standard Illumina NexteraXT reaction volume. Single-cell libraries were pooled and paired-end sequenced (38 bp×2) with a 75 cycle Nextseq 500 high output V2 kit.
# Analysis of SMART-Seq2 plate-based scRNA-Seq data. Reads were aligned to mm10 using Kallisto (Bray, N. L., Pimentel, H., Meisted, P. & Pachter, L. Near-optimal probabilistic RNA-seq quantification. Nat Biotechnol 134, 525-527, doi:10.1038/nbt.3519 (2016)) quant, version 0.42.3. The R package tximport (Soneson, C., Love, M. I. & Robinson, M. D. Differential analyses for RNA-seq: transcript-level estimates improve gene-level inferences [version 2; referees: 2 approved]. F1000Research 4, doi:10.12688/f1000research.7563.2 (2016)), version 1.2.0, was used to convert the output to gene counts and traditional TPM values. Because of the variability in read counts per cell across plates, even from the same condition, as well as in the number of genes per cell across conditions, QC was performed for each of eight plates individually in order to remove cells that were outliers with respect to either measure. Out of 752 cells, 606 cells met QC criteria (234 from control, 152 from IL-25 treated mice, and 220 from IL-33 treated mice), and the number of genes per cell in this set ranged from 1,625 to 6,375. Genes that were not expressed with log(TPM)>2.5 in at least two cells were removed from further analysis. Subsequent analysis proceeded analogously to the droplet-based RNA-seq analysis, with parameter settings that reflected both the wider dynamic range of expression and much smaller cell numbers. The minimum ILC signature score required in ILC type assignment was 0.3. Variable genes were identified by running MeanVarPlot with x.low.cutoff=0.1, y.cutoff=1.5, and x.high.cutoff=10, resulting in a set of 519 genes. […]
molecule,measurement,value
B1,0610031J06Rik expression coeff,0.555
same,1700017B05Rik expression coeff,−1.49
same,1700113H08Rik expression coeff,−0.86
same,4632428N05Rik expression coeff,1.28
same,AA467197 expression coeff,−0.724
same,AI593442 expression coeff,−2.55
same,AI836003 expression coeff,−0.781
same,AW112010 expression coeff,0.787
same,Abtb2 expression coeff,0.292
same,Acot7 expression coeff,0.807
same,Adrbk1 expression coeff,0.798
same,Adsl expression coeff,−1.77
same,Ahcyl2 expression coeff,−1.01
same,Amd1 expression coeff,−0.74
same,Anxa2 expression coeff,0.693
same,Ap3d1 expression coeff,0.719
same,Arf5 expression coeff,0.592
same,Arhgap1 expression coeff,1.34
same,Arhgap26 expression coeff,0.821
same,Asl expression coeff,1.17
same,Asph expression coeff,−1.27
same,Atp8b4 expression coeff,1
same,Atxn7l3b expression coeff,0.557
same,Bcl2a1d expression coeff,0.357
same,Bcl3 expression coeff,1.33
same,Bcl6 expression coeff,1.29
same,Bmp2 expression coeff,−0.856
same,Brix1 expression coeff,−0.00742
same,C1qbp expression coeff,−0.742
same,Cap1 expression coeff,1.28
same,Cblb expression coeff,1.08
same,Ccdc50 expression coeff,1.05
same,Ccdc142 expression coeff,−1.86
same,Ccng1 expression coeff,0.622
same,Ccr2 expression coeff,−1.53
same,Cd247 expression coeff,1.16
same,Chdh expression coeff,−0.136
same,Chordc1 expression coeff,1.4
same,Chst11 expression coeff,−0.0352
same,Cirbp expression coeff,−1.41
same,Commd10 expression coeff,−0.867
same,Cox10 expression coeff,0.786
same,Cpsf7 expression coeff,0.986
same,Crlf2 expression coeff,0.355
same,Csf1 expression coeff,−1.01
same,Cst7 expression coeff,−0.0555
same,Ctla4 expression coeff,1.48
same,Ctsw expression coeff,−0.0379
same,Cybrd1 expression coeff,−0.158
same,Dcaf12 expression coeff,0.717
same,Ddrgk1 expression coeff,−0.21
same,Ddx20 expression coeff,−1.24
same,Ddx58 expression coeff,0.528
same,Dennd5a expression coeff,0.929
same,Dgka expression coeff,−0.0503
same,Dhx35 expression coeff,−1.63
same,Dhx37 expression coeff,−0.288
same,Dhx58 expression coeff,2.3
same,Dkk3 expression coeff,−0.0269
same,Dock10 expression coeff,−0.792
same,E030030I06Rik expression coeff,−0.87
same,Ecm1 expression coeff,−0.0192
same,Endod1 expression coeff,0.398
same,Epsti1 expression coeff,1.79
same,Eva1b expression coeff,0.99
same,Exosc4 expression coeff,−0.31
same,Extl3 expression coeff,−0.16
same,Fam118a expression coeff,−0.764
same,Fbxl21 expression coeff,12.2
same,Ffar2 expression coeff,1.36
same,Fhl2 expression coeff,−1.07
same,Fosb expression coeff,0.156
same,Foxo3 expression coeff,2.06
same,Fus expression coeff,−0.388
same,Gal3st3 expression coeff,−1.01
same,Gba expression coeff,−0.05
same,Gbp4 expression coeff,0.318
same,Gbp6 expression coeff,0.949
same,Gbp9 expression coeff,0.745
same,Gga1 expression coeff,0.739
same,Gigyf1 expression coeff,−0.844
same,Glrx expression coeff,0.346
same,Gm12250 expression coeff,3.54
same,Gnai2 expression coeff,0.501
same,Gng2 expression coeff,1.06
same,Gnl3l expression coeff,−0.617
same,Gp49a expression coeff,1.04
same,Gpr108 expression coeff,0.205
same,Grn expression coeff,−0.326
same,Gskip expression coeff,0.645
same,Gucd1 expression coeff,−0.0721
same,H2-T9 expression coeff,0.437
same,H2-T10 expression coeff,0.799
same,H2-T22 expression coeff,0.0651
same,Herc6 expression coeff,0.579
same,Hpcal1 expression coeff,−0.169
same,Hsph1 expression coeff,0.237
same,Idh2 expression coeff,−0.56
same,Ifi35 expression coeff,0.307
same,Ifngr2 expression coeff,−0.761
same,Ifrd2 expression coeff,−1.53
same,Igfbp4 expression coeff,−2.9
same,Igsf5 expression coeff,−0.93
same,Il2rb expression coeff,0.699
same,Il5 expression coeff,1.4
same,Il13 expression coeff,1.61
same,Impact expression coeff,−1.46
same,Inpp1 expression coeff,1.79
same,Inpp4b expression coeff,−0.752
same,Inpp5b expression coeff,0.937
same,Irf4 expression coeff,1.11
same,Irf7 expression coeff,0.423
same,Isg15 expression coeff,2.03
same,Isg20 expression coeff,1.54
same,Itgae expression coeff,−0.182
same,Kit expression coeff,−0.406
same,Krit1 expression coeff,0.612
same,Lamp2 expression coeff,0.692
same,Lancl1 expression coeff,−1.11
same,Lat2 expression coeff,−0.0259
same,Lcmt2 expression coeff,−2.32
same,Lgals3bp expression coeff,0.804
same,Lgals3 expression coeff,0.303
same,Lilrb4 expression coeff,0.943
same,Lpcat2 expression coeff,−0.773
same,Lsm6 expression coeff,−0.616
same,Lxn expression coeff,0.065
same,Ly6a expression coeff,0.412
same,Map2k4 expression coeff,1.89
same,Marf1 expression coeff,3.17
